Measurements published in IntAct's records for PubMed 33420071.

B1: Dual oxidase 1 (Homo sapiens), Q9NRD9 (parent)
chain: MGFCLALAWTLLVGAWTPLGAQNPISWEVQRFDGWYNNLMEHRWGSKGSRLQRLVPASYADGVYQPLGEPHLPNPRDLSNTISRGPAGLASLRNRTVLGVFFGYHVLSDLVSVETPGCPAEFLNIRIPPGDPMFDPDQRGDVVLPFQRSRWDPETGRSPSNPRDPANQVTGWLDGSAIYGSSHSWSDALRSFSRGQLASGPDPAFPRDSQNPLLMWAAPDPATGQNGPRGLYAFGAERGNREPFLQALGLLWFRYHNLWAQRLARQHPDWEDEELFQHARKRVIATYQNIAVYEWLPSFLQKTLPEYTGYRPFLDPSISSEFVAASEQFLSTMVPPGVYMRNASCHFQGVINRNSSVSRALRVCNSYWSREHPSLQSAEDVDALLLGMASQIAEREDHVLVEDVRDFWPGPLKFSRTDHLASCLQRGRDLGLPSYTKARAALGLSPITRWQDINPALSRSNDTVLEATAALYNQDLSWLELLPGGLLESHRDPGPLFSTIVLEQFVRLRDGDRYWFENTRNGLFSKKEIEEIRNTTLQDVLVAVINIDPSALQPNVFVWHKGDPCPQPRQLSTEGLPACAPSVVRDYFEGSGFGFGVTIGTLCCFPLVSLLSAWIVARLRMRNFKRLQGQDRQSIVSEKLVGGMEALEWQGHKEPCRPVLVYLQPGQIRVVDGRLTVLRTIQLQPPQKVNFVLSSNRGRRTLLLKIPKEYDLVLLFNLEEERQALVENLRGALKESGLSIQEWELREQELMRAAVTREQRRHLLETFFRHLFSQVLDINQADAGTLPLDSSQKVREALTCELSRAEFAESLGLKPQDMFVESMFSLADKDGNGYLSFREFLDILVVFMKGSPEEKSRLMFRMYDFDGNGLISKDEFIRMLRSFIEISNNCLSKAQLAEVVESMFRESGFQDKEELTWEDFHFMLRDHNSELRFTQLCVKGVEVPEVIKDLCRRASYISQDMICPSPRVSARCSRSDIETELTPQRLQCPMDTDPPQEIRRRFGKKVTSFQPLLFTEAHREKFQRSCLHQTVQQFKRFIENYRRHIGCVAVFYAIAGGLFLERAYYYAFAAHHTGITDTTRVGIILSRGTAASISFMFSYILLTMCRNLITFLRETFLNRYVPFDAAVDFHRLIASTAIVLTVLHSVGHVVNVYLFSISPLSVLSCLFPGLFHDDGSELPQKYYWWFFQTVPGLTGVVLLLILAIMYVFASHHFRRRSFRGFWLTHHLYILLYVLLIIHGSFALIQLPRFHIFFLVPAIIYGGDKLVSLSRKKVEISVVKAELLPSGVTHLRFQRPQGFEYKSGQWVRIACLALGTTEYHPFTLTSAPHEDTLSLHIRAAGPWTTRLREIYSAPTGDRCARYPKLYLDGPFGEGHQEWHKFEVSVLVGGGIGVTPFASILKDLVFKSSVSCQVFCKKIYFIWVTRTQRQFEWLADIIREVEENDHQDLVSVHIYITQLAEKFDLRTTMLYICERHFQKVLNRSLFTGLRSITHFGRPPFEPFFNSLQEVHPQVRKIGVFSCGPPGMTKNVEKACQLINRQDRTHFSHHYENF
partner: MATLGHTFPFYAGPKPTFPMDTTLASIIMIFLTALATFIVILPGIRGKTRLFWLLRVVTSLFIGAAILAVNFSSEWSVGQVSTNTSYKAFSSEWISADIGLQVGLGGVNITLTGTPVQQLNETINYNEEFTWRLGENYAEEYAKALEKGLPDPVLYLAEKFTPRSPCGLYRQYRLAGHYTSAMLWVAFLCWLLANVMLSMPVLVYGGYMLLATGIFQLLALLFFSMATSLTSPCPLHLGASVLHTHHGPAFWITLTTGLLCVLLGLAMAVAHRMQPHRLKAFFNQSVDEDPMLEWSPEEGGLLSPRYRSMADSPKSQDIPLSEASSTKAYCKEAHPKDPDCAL

Variants of: B1
Details: with doxa1_human DUOXA1, Q1HG43

Row | Variant | effect of a mutation on the interaction
1 | R50E | disrupting interaction strength
2 | R507E | disrupting interaction strength
3 | R507A | disrupting interaction strength
